test: soluble on expression in E. coli; label from the status in PepcDB or PDB records

Which “soluble on expression in E. coli” value does the source give for “MGAGASAEEKHSRELEKKLKEDAEKDARTVKLLLLGAGESGKSTIVKQMKIIHQDGYSLEECLEFIAIIYGNTLQSILAIVRAMTTLNIQYGDSARQDDARKLMHMADTIEEGTMPKEMSDIIQRLWKDSGIQACFDRASEYQLNDSAGYYLSDLERLVTPGYVPTEQDVLRSRVKTTGIIETQFSFKDLNFRMFDVGGQRSERKKWIHCFEGVTAIIFCVALSDYDLVLAEDEEMNRMHESMKLFDSICNNKWFTDTSIILFLNKKDLFEEKIKKSPLTICYPEYAGSNTYEEAGNYIKVQFLELNMRRDVKEIYSHMTCATDTQNVKFVFDAVTDIIIKENLKDCGLF” here?
Its value is “soluble”.

Which “soluble on expression in E. coli” value does the source give for “MGALGYHPYFESNMIHSMTAFAADEHLTPWGLLACELRSVNHRFLDIVIRLPEELRALEPQLRERVAARVSRGKLDLTVRLSPQEIHTGKLVVNELLLSQLSTLALRLSAQFPALRVTFAELLQIPGVLKGEQIDMATLQGHAVALLDKVLNNFIATREREGLKMQAMIAQRASAIERIVGEVRILIPTIREGQHNKLSARMNHLSYPVDPGRIEQELVLWLQKLDVDEELDRLSSHISELHRILQQREPVGRRLDFLMQEFNREANTLGSKSVDSRTSNATIELKVLIDQIREQVQNIE” here?
The value was “soluble”.

With “MGAQYLKRVYLMSVIAETNEALLAKIKALCGDYLREVDTHPGQWDDSSVRRLVRNPPAVYVAWLGQQPNNNPHTVTARWGVFVVAEVLNGQRRNAVGIYQIVETLTAGLHKQRIAPSGMFELQTVQNLWSDTQSGMGVAVYGMYFNAVQPLPDMTSDDTLCDFKIYDHTFNQDKDEHTIDGKTRLTVELPTQSD” as the sequence, how does the “soluble on expression in E. coli” value read?
The value was “not soluble”.

For “MGARCDVAVIGAGPAGCAAAIALKRLGVASVLLLEAGDGARPRFGESLPPDIRLILAQLGLAEAFAALGFDPCVGAASSWGEDGLGYNDFLFNPHGLGWHIDRARFDAFLRDAAVAAGAELRFDTVFDSVVMTGDAARLRVRGERGDETITAGFVLDATGRAARVARALGAERIESDRLVCAAALIRIDPDGLLGQRSLLEAVDYGWWYAARLSPDEAIVVVSTDADLLRARRLHRSDAWYGHLAATRHVAAALGTAAPPSQLMVRQARSSRLSRAADQRWRAIGDAASVYDPIMAQGVTKAMIEGLAAARDIVRHMPDAEEGLDARFADYLSLRDYFYGQEGRWPDAPFWTRRRRPQPAVRTLWEVSALEHHHHHH”, which “soluble on expression in E. coli” value is on record?
Its value is “not soluble”.

With “MGASGRICTVVPVEDAGEAAMLALSSPTGCVELRLDFYPGDPGEALELLATRLHSPARVVVTLRSAGHGGLDRRARGERRAVLARLEDLAPEGWLVDYEVEDLHASSGCSGCIASSHPTTPPTPRRALEEAAVAERLGASAYKLVYPGVEPWEQAAAARLVAEAGGFATSFTLGPGTLASRLTALALGAPLVFGSHPRAPLDGVPQSSEIMELYLRMGLGES” as the sequence, how does the “soluble on expression in E. coli” value read?
Its value is “not soluble”.

For “MGASKYDVKRLVDDYVNRLAKNGVLPDVIDKEPILPRVTLPESEITSQSYRKYPKKPKAIGKVGSTGGNRNGMGAIHPTLISYPEEQRKTNSRVKNNRSNYHIGNIGNIGGNIGNGQKMNRNKNGGRNQGGNHPDNMGIPMFPIARPTPYDLAEYIERGLNTGRSNHRTPQNFRRYPEHECDYYAGPCATSF”, which “soluble on expression in E. coli” value is on record?
The value was “not soluble”.

Which “soluble on expression in E. coli” value does the source give for “MGEAAVAEGPCPLLEDSFTRFSSQSNVYGLAGGADGRGELLAATLKGKVLGFRYQDLRQKIRPVAKELQFNYIPVDAEIVSIDTFNKSPPKRGLVVGITFIKDSGDKGSPFLNIYCDYEPGSEYNLDSIAESCLNLELQFTPFQLCHAEVQVGDQLETVFLLSGNDPAIHLYKENEGLHQFEEQPVENLFPELTNLTSSVLWLDVHNLPGSSQRLSALGCQSGYVRVAHVDQKNQEILQTWTIQQDGPISRVIVFSLSASEATQDSPQQEGYSLLVASMLEPAVVYWDLLNKGLDDQLLLPGSDQFDSVLCGLVTDVDLDGQLEVLVATYGQELLCYKYRGLPEDSRGFRLLWRRSFASPLLAMAHVDLTGDGLRELAVISLKGVHILQHSLIQASELVLTRLRHQVEQRKHQQGLGDRVGPRPVEHPAS” here?
The value was “soluble”.

With “MGEAVEVMFGNGFPEIHKATSPTQTLHSNQQDCHWYEETIDDDLKWSFALNSVLHQGTSEYQDIALLDTKRFGKVLVIDGKMQSAERDEFIYHECLIHPALLFHPNSPKTVFIMGGGEGSAAREILKHTTIEKVVMCDIDQEVVDFCRRFLTVNSDAFCNKKLELVIKDAKAELEKREEKFDIIVGDLADPVEGGPCYQLYTKSFYQNILKPKLSPNGIFVTQAGPAGIFTHKEVFTSIYNTMKQVFKYVKAYTAHVPSFADTWGWVMASDHEFDVEVDEMDRRIEERVNGELMYLNAPSFVSAATLNKTISLALEKETEVYSEENARFIHGHGVAYRHI” as the sequence, how does the “soluble on expression in E. coli” value read?
Its value is “soluble”.

Which “soluble on expression in E. coli” value does the source give for “MGENSLWNVYKTVSFWKVMKNFIIIQIARYTPCLSVKNWLYRTFLRMKVGKKTSFALMVMPDIMFPEKITVGENSIIGYNTTLLAHEYLIREYRLGEIVIGNEVMIGANVTILPGVKIGDGATVSAGTLVHRDVPSGAFVGGNPMRIIYTKEQMTAREGLEHHHHHH” here?
The value was “not soluble”.

Which “soluble on expression in E. coli” value does the source give for “MGFDASVLKSVLEQFVDEIGEESVDLIEDRPRFAHAVVVVTDDATGELCQASCIRQLDDVILHETSVANVTSEWMDEEIQRALRELTESRELLDTPRNSVFVEEKHEKQKTVTTTTTSTETSRNTSSRVEFPSMARRTRSTSAARRFN” here?
Its value is “not soluble”.

With “MGGDSVAIFTADMSVSGELRNDIELHLRRGIESDALRLVYLPEVDLRTGDIVGTEALVRWQHPTRGLLAPGCFIPVAESINLAGELDRWVLRRACNEFSEWQSAGLGHDALLRINVSAGQLVTGGFVDFVADTIGQHGLDASSVCLEITENVVVQDLHTARATLARLKEVGVHIAIDDFGTGYSAISLLQTLPIDTLKIDKTFVRQLGTNTSDLVIVRGIMTLAEGFQLDVVAEGVETEAAARILLDQRCYRAQGFLFSRPVPGEAMRHMLSARRLPPTCILEHHHHHH” as the sequence, how does the “soluble on expression in E. coli” value read?
Its value is “not soluble”.

For “MGGIARLYGDSALAHFSQAHVCVVGVGGVGSWAVEALARTGIGRLTLIDLDNVAESNVNRQLHALTGDFGKAKVTALRERITQINPQCEVFEIEDFVTEDNLPEYFGKGFDFVIDAIDQVRVKAAMAAYFVERKQPFVLSGGAGGQKNPALIQTADLSRVTHDPLLANLRYTLRKRYGFSRDTKANMRVPCVYSTENIVPPQSREACSADAAPQGLSCAGYGASMLVTASFGLYCAQAAVEHIADKKLEHHHHHH”, which “soluble on expression in E. coli” value is on record?
Its value is “not soluble”.

For “MGGSFGKKGASSATAAQVPLATETTPGLMSPSEKLKLSTLTTSIATSDFYASYDFMMHSIGLTSANNISLLSTGNISLQNILSEGNHFGVQPIVSSTTANASFLAGMLMAIFPKESELEVTVYFKTPSAFNPAQLTVIGSTSIGLGISDRSGLIIENGNAFGGIVKASAATETGSTYALSTSTWYICKFKMLTDDRFKVTLYSDSGTQLYSYTSTAAMFRADNATAHIGFKTQCKTATAGISLISIDLIEFKAKVSATRAKV”, which “soluble on expression in E. coli” value is on record?
Its value is “soluble”.

Which “soluble on expression in E. coli” value does the source give for “MGGSHHHHHHGMASALDPAGGPRGVLPRPCRVLVLLNPRGGKGKALQLFRSHVQPLLAEAEISFTLMLTERRNHARELVRSEELGRWDALVVMSGDGLMHEVVNGLMERPDWETAIQKPLCSLPAGSGNALAASLNHYAGYEQVTNEDLLTNCTLLLCRRLLSPMNLLSLHTASGLRLFSVLSLAWGFIADVDLESEKYRRLGEMRFTLGTFLLLAALRTYRGRLAYLPVGRVGSKTPASPVVVQQGPVDAHLVPLEEPVPSHWTVVPDEDFVLVLALLHSHLGSEMFAAPMGRCAAGVMHLFYVRAGVSRAMLLRLFLAMEKGRHMEYECPYLVYVPVVAFRLEPKDGKGVFAVDGELMVSEAVQGQVHPNYFWMVSGCVEPPPSWKPQQMPPPEEPL” here?
The value was “not soluble”.

Which “soluble on expression in E. coli” value does the source give for “MGGSHHHHHHGMASALFRMLNSSFEDDPFFSESILAHRENMRQMIRSFSEPFGRDLLSISDGRGRAHNRRGHNDGEDSLTHTDVSSFQTMDQMVSNMRNYMQKLERNFGQLSVDPNGHSFCSSSVMTYSKIGDEPPKVFQASTQTRRAPGGIKETRKAMRDSDSGLEKMAIGHHIHDRAHVIKKSKNKKTGDEEVNQEFINMNESDAHAFDEEWQSEVLKYKPGRHNLGNTRMRSVGHENPGSRELKRREKPQQSPAIEHGRRSNVLGDKLHIKGSSVKSNKK” here?
The value was “not soluble”.

With “MGGSHHHHHHMASSVPIPGIKDISKLKFFYGFKYLWNPTVYNKIFDKLDLTKTYKHPEELKVLDLYPGVGIQSAIFYNKYCPRQYSLLEKRSSLYKFLNAKFEGSPLQILKRDPYDWSTYSNLIDEERIFVPEVQSSDHINDKFLTVANVTGEGSEGLIMQWLSCIGNKNWLYRFGKVKMLLWMPSTTARKLLARPGMHSRSKCSVVREAFTDTKLIAISDANELKGFDSQCIEEWDPILFSAAEIWPTKGKPIALVEMDPIDFDFDVDNWDYVTRHLMILKRTPLNTVMDSLGHGGQQYFNSRITDKDLLKKCPIDLTNDEFIYLTKLFMEWPFKPDILMDFVDMYQTEHSG” as the sequence, how does the “soluble on expression in E. coli” value read?
Its value is “soluble”.

For “MGGTSYLIVGNEGNILIDCPALDQTNLNFLRSHGGVRWLFLTHRGAIGRTAEIQQNYGCDILIQEQEAYLLPGLTVTTFTQEFAVTPTAKAIWTPGHSPGSSCLYYNHQGGVLFSGRHLLPNQKGEPVPLRTAKTFHWPRQIKSLQTILETLTPETLQYICPGANTGFLRGKRSIDTAYQRLASLDLKALLQTQPLEHHHHHH”, which “soluble on expression in E. coli” value is on record?
The value was “not soluble”.

For “MGHDIDQVAPLLREPANFQLRTNCDPHEDNFGLRAHGPLVRIVGESSTQLGRDFVWQAHGYEVVRRILGDHEHFTTRPQFTQSKSGAHVEAQFVGQISTYDPPEHTRLRKMLTPEFTVRRIRRMEPAIQSLIDDRLDLLEAEGPSADLQGLFADPVGAHALCELLGIPRDDQREFVRRIRRNADLSRGLKARAADSAAFNRYLDNLLARQRADPDDGLLGMIVRDHGDNVTDEELKGLCTALILGGVETVAGMIGFGVLALLDNPGQIELLFESPEKAERVVNELVRYLSPVQAPNPRLAIKDVVIDGQLIKAGDYVLCSILMANRDEALTPDPDVLDANRAAVSDVGFGHGIHYCVGAALARSMLRMAYQTLWRRFPGLRLAVPIEEVKYRSAFVDCPDQVPVTW”, which “soluble on expression in E. coli” value is on record?
Its value is “soluble”.

Which “soluble on expression in E. coli” value does the source give for “MGHHHHHHAIAENLYFQSKLVEKTTTTEQDNGEDFCRTIIEVSEVNRNVFQAPGGEADPFRVVSGEELHLIPPLNFSMVDNGIFRSGFPDSANFSFLQTLGLRSIIYLCPEPYPESNLQFLKSNGIRLFQFGIEGNKEPFVNIPDHKIRMALKVLLDEKNHPVLIHCKRGKHRTGCLVGCLRKLQKWCLTSIFDEYQRFAAAKARVSDQRFMEIFDVSSFSHIPMSFSCSIR” here?
The value was “soluble”.

For “MGHHHHHHSHALPAGEWGTVQLRGSWRVGQTAGGSRNFASYPTNPCFPFSVPEGPGPRCVRITLHQHCRPSDTEFHPIGFHIFQVPEGGRSQDAPPLLLQEPLLSCVPHRYAQEVSRLCLLPAGTYKVVPSTYLPDTEGAFTVTIATRIDRPSIHSQEMLGQFLQEVSVMAVMKT”, which “soluble on expression in E. coli” value is on record?
Its value is “soluble”.

For “MGHHHHHHSHCDSDCLWVGLAGPQILPPCRSIVRTLHQHKLGRASWPSVQQGLQQSFLHTLDSYRILQKAAPFDRRATSLAWHPTHPSTVAVGSKGGDIMLWNFGIKDKPTFIKGIGAGGSITGLKFNPLNTNQFYASSMEGTTRLQDFKGNILRVFASSDTINIWFCSLDVSASSRMVVTGDNVGNVILLNMDGKELWNLRMHKKKVTHVALNPCCDWFLATASVDQTVKIWDLRQVRGKASFLYSLPHRHPVNAACFSPDGARLLTTDQKSEIRVYSASQWDCPLGLIPHPHRHFQHLTPIKAAWHPRYNLIVVGRYPDPNFKSCTPYELRTIDVFDGNSGKMMCQLYDPESSGISSLNEFNPMGDTLASAMGYHILIWSQEEARTRK”, which “soluble on expression in E. coli” value is on record?
Its value is “not soluble”.
